Results published in PMC7840181.

Biological target: CLAG3-tv2 (CLAG3h with C-terminal His10-FLAG-thrombin-TEV-HA-twinstrept-BC2 multi-tag) (Plasmodium falciparum)
Test: native MS; endogenous RhopH complex purified via CLAG3-tv2 (FLAG, then Ni-NTA), exchanged into 200 mM ammonium acetate pH 7.5, 0.01% Tween-20; Exactive Plus EMR

RhopH2 (from UniProt C0H571 20-1378) (natural protein)
stoichiometry N: 1

RhopH3 (from UniProt Q8I395 25-897) (natural protein)
stoichiometry N: 1
